Assay in all cases: EMSA; EMSA: 50 mM NaCl, 10 mM Tris-HCl pH 8.0, 10% glycerol; protein 0-2000 nM; 30 min at 30 °C then 30 min at room temperature; 6% native PAGE in 0.5x TBE; 3 replicates
Common to all, as to details: protein: recombinant; tags: N-terminal Strep-Tag II, C-terminal 10xHis; label: IRDye 700
Background: A gel shift assay detects complexes by their altered migration in electrophoresis.

One data set deals with T1, TBX5 T-box domain I54T (human? (UniProt Q99593 used for …, UniProt Q99593 48-248, I54T)).
T1 sequence: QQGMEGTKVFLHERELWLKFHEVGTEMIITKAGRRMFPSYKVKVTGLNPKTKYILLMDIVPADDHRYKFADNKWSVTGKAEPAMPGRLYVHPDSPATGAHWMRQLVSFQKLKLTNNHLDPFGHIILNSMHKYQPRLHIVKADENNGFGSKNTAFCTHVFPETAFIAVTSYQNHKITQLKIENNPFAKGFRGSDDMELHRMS

In the next data set the target is T2, TBX5 T-box domain R237W (human? (UniProt Q99593 used for …, UniProt Q99593 48-248, R237W)).
T2 sequence: T1 sequence with T7I, R190W

The next data set has as its target T3, TBX5 T-box domain M74V (human? (UniProt Q99593 used for …, UniProt Q99593 48-248, M74V)).
T3 sequence: T1 sequence with T7I, M27V

A further data set addresses T4, TBX5 T-box domain R113K (human? (UniProt Q99593 used for …, UniProt Q99593 48-248, R113K)).
T4 sequence: T1 sequence with T7I, R66K

The target of a further data set is T5, TBX5 T-box domain I101F (human? (UniProt Q99593 used for …, UniProt Q99593 48-248, I101F)).
T5 sequence: T1 sequence with T7I, I54F

Substitutions are numbered along the chain they refer to.

B1: Nppa (ANF) promoter probe (dsDNA)
DNA 1: CCCGGTTTTGTGATTCTCTCTCTCACACCTTCAGCAGGAACGTGCCAATGCCGCCGTAAG
DNA 2: CTTACGGCGGCATTGGCACGTTCCTGCTGAAGGTGTGAGAGAGAGAATCACAAAACCGGG
Take B1: the binding signal is -1.65 fold change in Bmax vs WT with TBX5 T-box domain I54T; -3.76 fold change in Bmax vs WT with TBX5 T-box domain R237W; -3.27 fold change in Bmax vs WT in the data set with TBX5 T-box domain M74V; -2.87 fold change in Bmax vs WT in the data set with TBX5 T-box domain R113K; -1.26 fold change in Bmax vs WT with TBX5 T-box domain I101F.

B2: Camta1 promoter probe (dsDNA)
DNA 1: GCAGATCTCCTGCTGGGCTGACACCTCACTATCGCAGAACCGTGCCAATGCCGCCGTAAG
DNA 2: CTTACGGCGGCATTGGCACGGTTCTGCGATAGTGAGGTGTCAGCCCAGCAGGAGATCTGC
B2: the binding signal is -1.34 fold change in Bmax vs WT with TBX5 T-box domain I54T; -10.5 fold change in Bmax vs WT with TBX5 T-box domain R237W; -2.93 fold change in Bmax vs WT with TBX5 T-box domain M74V; -1.49 fold change in Bmax vs WT in the data set with TBX5 T-box domain R113K; -1.38 fold change in Bmax vs WT with TBX5 T-box domain I101F.

For the origin of these results see article PMC12588321, “Congenital heart disease missense mutations in the TBX5 DNA-binding domain alter thermal stability and DNA-binding affinity”.
